Literature values in paper PMC13348789.

Biological target: IL-2Rβ/γc intermediate-affinity receptor (Homo sapiens) (UniProt P14784)
Chain of UniProt P14784 (P14784 27-240, chain 1 of 2): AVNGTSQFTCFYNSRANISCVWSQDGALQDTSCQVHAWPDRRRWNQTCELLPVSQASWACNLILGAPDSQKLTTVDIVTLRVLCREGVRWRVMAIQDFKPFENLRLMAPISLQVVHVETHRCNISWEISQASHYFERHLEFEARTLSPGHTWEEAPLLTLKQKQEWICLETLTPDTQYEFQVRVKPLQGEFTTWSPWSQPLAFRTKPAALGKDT
Chain of UniProt P14784 (P31785 23-262, chain 2 of 2, further chain): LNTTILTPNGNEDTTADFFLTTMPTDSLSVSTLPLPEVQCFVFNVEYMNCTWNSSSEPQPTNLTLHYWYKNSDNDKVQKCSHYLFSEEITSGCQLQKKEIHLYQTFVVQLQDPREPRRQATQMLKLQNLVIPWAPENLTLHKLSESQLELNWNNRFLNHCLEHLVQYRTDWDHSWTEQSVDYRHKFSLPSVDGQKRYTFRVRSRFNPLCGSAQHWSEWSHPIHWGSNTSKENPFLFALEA

Kd: 1 nM
Substance: IL-2 (from UniProt P60568)
